B1: … (peptide)
peptide: RVCEKMALY
modifications: not checked
B2: … (peptide)
peptide: RVFTEAMTR
modifications: not checked
B3: … (peptide)
peptide: AAYAAQGYK
modifications: not checked
B4: … (peptide)
peptide: VTLTHPITK
modifications: not checked
B5: … (peptide)
peptide: IIMYAPTLW
modifications: not checked
B6: … (peptide)
peptide: GLTHIDAHF
modifications: not checked
B7: … (peptide)
peptide: YYRGLDVSVI
modifications: not checked
B8: … (peptide)
peptide: VILDSFDPL
modifications: not checked
B9: … (peptide)
peptide: NLPGCSFSI
modifications: not checked
B10: … (peptide)
peptide: RMILMTHFF
modifications: not checked
B11: … (peptide)
peptide: TPAETSVRL
modifications: not checked
B12: … (peptide)
peptide: SPGQRVEFL
modifications: not checked
B13: … (peptide)
peptide: APPPSWDQM
modifications: not checked
B14: … (peptide)
peptide: APTLWARMI
modifications: not checked
B15: … (peptide)
peptide: ATLGFGAYM
modifications: not checked
B16: … (peptide)
peptide: APLGGAARA
modifications: not checked
B17: … (peptide)
peptide: APTGSGKST
modifications: not checked
B18: … (peptide)
peptide: APTLWARMIL
modifications: not checked
B19: … (peptide)
peptide: LPRRGPRLGV
modifications: not checked
B20: … (peptide)
peptide: ALAHGVRVL
modifications: not checked
B21: … (peptide)
peptide: APLGGAARAL
modifications: not checked
B22: … (peptide)
peptide: GMFDSSVLC
modifications: not checked
B23: … (peptide)
peptide: YQATVCARA
modifications: not checked
B24: … (peptide)
peptide: YLFNWAVRT
modifications: not checked
B25: … (peptide)
peptide: VVSTLPQAV
modifications: not checked
B26: … (peptide)
peptide: MALYDVVST
modifications: not checked
B27: … (peptide)
peptide: KVLVLNPSV
modifications: not checked
B28: … (peptide)
peptide: RLYIGGPLT
modifications: not checked
B29: … (peptide)
peptide: TLWARMILM
modifications: not checked
B30: … (peptide)
peptide: NIIMYAPTL
modifications: not checked
B31: … (peptide)
peptide: IMACMSADL
modifications: not checked
B32: … (peptide)
peptide: YIPLVGAPL
modifications: not checked
B33: … (peptide)
peptide: LPRRGPRLG
modifications: not checked
B34: … (peptide)
peptide: CLVDYPYRL
modifications: not checked
B35: … (peptide)
peptide: DLMGYIPLV
modifications: not checked
B36: … (peptide)
peptide: DLCGSVFLV
modifications: not checked
B37: … (SEQ ID NO 2192) (peptide)
peptide: PQTFQVAHLHAPTGS
modifications: not checked
B38: … (SEQ ID NO 2157) (peptide)
peptide: GYKVLVLNPSVAATL
modifications: not checked
B39: … (SEQ ID NO 2110) (peptide)
peptide: ASCLRKLGVPPLRVW
modifications: not checked
B40: … (SEQ ID NO 2199) (peptide)
peptide: RAAVCTRGVAKAVDF
modifications: not checked
B41: … (SEQ ID NO 2155) (peptide)
peptide: GVNYATGNLPGCSFS
modifications: not checked
B42: … (SEQ ID NO 2213) (peptide)
peptide: SKGWRLLAPITAYAQ
modifications: not checked
B43: … (SEQ ID NO 2111) (peptide)
peptide: ASQLSAPSLKATCTT
modifications: not checked
B44: … (SEQ ID NO 2142) (peptide)
peptide: GHRMAWDMMMNWSPT
modifications: not checked
B45: … (SEQ ID NO 2105) (peptide)
peptide: ADLMGYIPLVGAPLG
modifications: not checked
B46: … (SEQ ID NO 2166) (peptide)
peptide: LAGYGAGVAGALVAF
modifications: not checked
B47: … (SEQ ID NO 2153) (peptide)
peptide: GSSYGFQYSPGQRVE
modifications: not checked
B48: … (SEQ ID NO 2226) (peptide)
peptide: TTIMAKNEVFCVQPE
modifications: not checked
B49: … (SEQ ID NO 2245) (peptide)
peptide: WESVFTGLTHIDAHF
modifications: not checked
B50: … (SEQ ID NO 2125) (peptide)
peptide: DVVVVATDALMTGYT
modifications: not checked
B51: … (SEQ ID NO 2137) (peptide)
peptide: GARLVVLATATPPGS
modifications: not checked
B52: … (SEQ ID NO 2193) (peptide)
peptide: PTHYVPESDAAARVT
modifications: not checked
B53: … (SEQ ID NO 2149) (peptide)
peptide: GPRLGVRATRKTSER
modifications: not checked
B54: … (peptide)
peptide: QIVGGVYLL
modifications: not checked
B55: … (peptide)
peptide: FLLALLSCL
modifications: not checked
B56: … (peptide)
peptide: GRKPARLIV
modifications: not checked
B57: … (peptide)
peptide: YRRCRASGV
modifications: not checked
B58: … (peptide)
peptide: GRRGIYRFV
modifications: not checked
B59: … (peptide)
peptide: VAYYRGLDV
modifications: not checked
B60: … (peptide)
peptide: RKPARLIVF
modifications: not checked
B61: … (peptide)
peptide: YAAQGYKVLV
modifications: not checked
B62: … (peptide)
peptide: NAVAYYRGL
modifications: not checked
B63: … (peptide)
peptide: TYSTYGKFL
modifications: not checked
B64: … (peptide)
peptide: YRRCRASGVL
modifications: not checked
B65: … (peptide)
peptide: DQRPYCWHY
modifications: not checked

The binders below were run against HLA-A0301 (human) (assay: not given). Conditions: not given.
Work on B1 yielded a Ki of under 1000 nM. For B2, the Ki was under 1000 nM. For B3, the Ki was under 1000 nM.

Same assay, conditions: remark: other sources report otherwise
B4 showed a Ki of under 1000 nM.

These binders were tested against HLA-A2402 (human) (assay: not given). Conditions: not given.
Work on B5 yielded a Ki of 0.8 nM. B6 showed a Ki of 3 nM. B7 showed a Ki of 2 nM. Work on B8 yielded a Ki of over 20000 nM.

Same assay, conditions: remark: other sources report otherwise
B9 gave a Ki of 8 nM. B10 gave a Ki of 6 nM.

Each binder was assayed against HLA-B0702 (human) (assay: not given). Conditions: not given.
For B11, the Ki was under 1000 nM.

Same assay, conditions: remark: other sources report otherwise
B12 was tested, and the Ki was under 1000 nM. B13 gave a Ki of under 1000 nM. Binder B14 has a Ki of under 1000 nM.

What follows are binders tested against HLA-B0702 (human) (assay: competition vs 125I probe peptide, purified HLA). Conditions: not given.
In the case of B15, the Ki is reported as 13000 nM. With B16 the Ki was 115 nM. B17 showed a Ki of 370 nM.

Same assay, conditions: remark: other sources report otherwise
B18 was tested, and the Ki was 1 nM. Work on B19 yielded a Ki of 3 nM. With B20 the Ki was 7950 nM. With B21 the Ki was 1 nM.

These binders were tested against HLA-A0201 (human) (assay: competition vs 125I probe peptide, purified HLA-A*0201). Conditions: not given.
B22 was tested, and the Ki was 71 nM. For B23, the Ki was 20 nM. Work on B24 yielded a Ki of 29 nM. B25 was tested, and the Ki was 884 nM. In the case of B26, the Ki is reported as 1140 nM. In the case of B27, the Ki is reported as 50 nM. B28 was tested, and the Ki was 536 nM. With B29 the Ki was 8 nM. In the case of B30, the Ki is reported as 70 nM.

Same assay, conditions: remark: other sources report otherwise
For B9, the Ki was 70 nM. B31 was tested, and the Ki was 66 nM. B32 was tested, and the Ki was 77 nM.

Each binder was assayed against HLA-B*0702 (human) (assay: competition with 125I-labeled probe peptide, purified HLA). Conditions: not given.
Binder B16 has an IC50 of 115 nM. Work on B17 yielded an IC50 of 370 nM. Binder B33 has an IC50 of 124 nM.

Same assay, conditions: remark: other sources report otherwise
B21 showed an IC50 of 0.8 nM.

What follows are binders tested against HLA-A0201 (human) (assay: competition with 125I-labelled probe peptide, purified HLA). Conditions: not given.
In the case of B34, the Ki is reported as 437 nM.

Same assay, conditions: remark: other sources report otherwise
For B20, the Ki was 627 nM. With B35 the Ki was 36 nM. B36 showed a Ki of 789 nM.

Each binder was assayed against HLA-DRB1*0101 (human) (assay: competition vs 125I-labelled probe peptide, purified HLA-DR). Conditions: not given.
For B37, the IC50 was 22 nM. Binder B38 has an IC50 of 8.4 nM. In the case of B39, the IC50 is reported as 4.9 nM. Binder B40 has an IC50 of 619 nM. Work on B41 yielded an IC50 of 4560 nM. Binder B42 has an IC50 of 0.4 nM. In the case of B43, the IC50 is reported as 329 nM. B44 gave an IC50 of 183 nM.

Same assay, conditions: remark: other sources report otherwise
Work on B45 yielded an IC50 of 8330 nM. B46 gave an IC50 of 137 nM. B47 gave an IC50 of 11 nM. In the case of B48, the IC50 is reported as 3730 nM. In the case of B49, the IC50 is reported as 122 nM. Work on B50 yielded an IC50 of 456 nM. With B51 the IC50 was 173 nM.

Each binder was assayed against HLA-DRB1*0301 (human) in the same assay as above. Conditions: not given.
Binder B52 has an IC50 of 4950 nM. In the case of B53, the IC50 is reported as 18900 nM. With B44 the IC50 was 919 nM.

What follows are binders tested against HLA-A*0301 (human) (assay: competition with 125I-labelled probe peptide on purified soluble HLA). Conditions: not given.
For B1, the IC50 was 53 nM. Work on B2 yielded an IC50 of 45 nM.

These binders were tested against HLA-B0702 (human) in the same assay as above. Conditions: remark: other sources report otherwise.
For B18, the Ki was 1 nM. For B19, the Ki was 3 nM. B21 gave a Ki of 1 nM.

Each binder was assayed against HLA-A*0201 (human) (assay: competition binding, purified soluble HLA, 125I-labelled probe peptide). Conditions: not given.
B23 showed an IC50 of 20 nM. For B24, the IC50 was 29 nM. With B30 the IC50 was 70 nM.

Same assay, conditions: remark: other sources report otherwise
B31 was tested, and the IC50 was 66 nM.

What follows are binders tested against HLA-A*0201 (human) (assay: competition with radiolabeled probe peptide for purified soluble HLA-A*0201). Conditions: not given.
B22 was tested, and the IC50 was 114 nM. With B34 the IC50 was 437 nM. In the case of B54, the IC50 is reported as 228 nM. Binder B27 has an IC50 of 50 nM.

Same assay, conditions: remark: other sources report otherwise
B35 gave an IC50 of 83 nM. B9 was tested, and the IC50 was 83 nM. In the case of B32, the IC50 is reported as 337 nM. Binder B55 has an IC50 of 136 nM.

These binders were tested against HLA-Cw0602 (human) (assay: not given). Conditions: not given.
B56 showed a Ki of 2040 nM. For B57, the Ki was 634 nM. With B58 the Ki was 576 nM. B59 was tested, and the Ki was 231 nM. B60 was tested, and the Ki was 8280 nM. Work on B61 yielded a Ki of 9210 nM.

Same assay, conditions: remark: other sources report otherwise
For B62, the Ki was 10800 nM. B63 gave a Ki of 4860 nM.

These binders were tested against HLA-Cw0702 (human) (assay: not given). Conditions: not given.
B64 was tested, and the Ki was 83 nM. B7 gave a Ki of 87 nM. B65 was tested, and the Ki was 710 nM. B63 gave a Ki of 239 nM.

Source: patent publication US20060093617A1
